In patent US20170233497A1 (Genmab, published 2017):
Numbering of substitutions follows the chain as printed. Names and notes keep the numbering of the source.

B1: CH2-CH3 fragment of human IgG1 with K409R (other, UniProt P01857-1 224-330, looked up, name in EU numbering)
chain: GQPREPQVYTLPPSRDELTKNQVSLTCLVKGFYPSDIAVEWESNGQPENNYKTTPPVLDSDGSFFLYSRLTVDKSRWQQGNVFSCSVMHEALHNHYTQKSLSLSPGK
notes: range 341-447; As m1, with the mutation; also called G1-K409R; not shown: N-terminal 6 amino acid His tag
B2: CH2-CH3 fragment of human IgG1 with F405L (other, UniProt P01857-1 224-330, looked up, name in EU numbering)
chain: B1 chain with F65L, R69K
notes: range 341-447; As m1, with the mutation; also called G1-F405L; not shown: N-terminal 6 amino acid His tag
B3: CH2-CH3 fragment of human IgG1 with T350I-K370T-F405L (other, UniProt P01857-1 224-330, looked up, name in EU numbering)
chain: B1 chain with T10I, K30T, F65L, R69K
notes: range 341-447; also called G1-ITL; not shown: N-terminal 6 amino acid His tag
B4: CH2-CH3 fragment of human IgG1 with T350I (other, UniProt P01857-1 224-330, looked up, name in EU numbering)
chain: B1 chain with T10I, R69K
notes: range 341-447; As m1, with the mutation; also called G1-T350I; not shown: N-terminal 6 amino acid His tag
B5: CH2-CH3 fragment of human IgG1 with K370T (other, UniProt P01857-1 224-330, looked up, name in EU numbering)
chain: B1 chain with K30T, R69K
notes: range 341-447; As m1, with the mutation; also called G1-K370T; not shown: N-terminal 6 amino acid His tag
B6: CH2-CH3 fragment of human IgG4 with R409K (other, UniProt P01861-1 221-327, looked up, name in EU numbering)
chain: B1 chain with R15Q, D16E, L18M, R69K, Q79E, P105L
notes: range 341-447; As m7, with the mutation; also called G4-R409K; not shown: N-terminal 6 amino acid His tag
B7: CH2-CH3 fragment of human IgG4 with S364D (other, UniProt P01861-1 221-327, looked up, name in EU numbering)
chain: B1 chain with R15Q, D16E, L18M, S24D, Q79E, P105L
notes: range 341-447; As m7, with the mutation; also called G4-S364D; not shown: N-terminal 6 amino acid His tag
B8: CH2-CH3 fragment of human IgG4 with R409L (other, UniProt P01861-1 221-327, looked up, name in EU numbering)
chain: B1 chain with R15Q, D16E, L18M, R69L, Q79E, P105L
notes: range 341-447; As m7, with the mutation; also called G4-R409L; not shown: N-terminal 6 amino acid His tag
B9: CH2-CH3 fragment of human IgG4 with R409T (other, UniProt P01861-1 221-327, looked up, name in EU numbering)
chain: B1 chain with R15Q, D16E, L18M, R69T, Q79E, P105L
notes: range 341-447; As m7, with the mutation; also called G4-R409T; not shown: N-terminal 6 amino acid His tag
B10: CH2-CH3 fragment of wild type human IgG4 (other, UniProt P01861-1 221-327, looked up)
chain: B1 chain with R15Q, D16E, L18M, Q79E, P105L
notes: range 341-447; His-tagged fragment without hinge; the KD is its non-covalent self-association (CH3-CH3 homodimer); not shown: N-terminal 6 amino acid His tag
B11: CH2-CH3 fragment of human IgG4 with F405A (other, UniProt P01861-1 221-327, looked up, name in EU numbering)
chain: B1 chain with R15Q, D16E, L18M, F65A, Q79E, P105L
notes: range 341-447; As m7, with the mutation; also called G4-F405A; not shown: N-terminal 6 amino acid His tag
B12: CH2-CH3 fragment of human IgG4 with R409A (other, UniProt P01861-1 221-327, looked up, name in EU numbering)
chain: B1 chain with R15Q, D16E, L18M, R69A, Q79E, P105L
notes: range 341-447; As m7, with the mutation; also called G4-R409A; not shown: N-terminal 6 amino acid His tag
B13: CH2-CH3 fragment of human IgG4 with R409M (other, UniProt P01861-1 221-327, looked up, name in EU numbering)
chain: B1 chain with R15Q, D16E, L18M, R69M, Q79E, P105L
notes: range 341-447; As m7, with the mutation; also called G4-R409M; not shown: N-terminal 6 amino acid His tag
B14: CH2-CH3 fragment of human IgG4 with L351K (other, UniProt P01861-1 221-327, looked up, name in EU numbering)
chain: B1 chain with L11K, R15Q, D16E, L18M, Q79E, P105L
notes: range 341-447; As m7, with the mutation; also called G4-L351K; not shown: N-terminal 6 amino acid His tag
B15: CH2-CH3 fragment of human IgG4 with K370E (other, UniProt P01861-1 221-327, looked up, name in EU numbering)
chain: B1 chain with R15Q, D16E, L18M, K30E, Q79E, P105L
notes: range 341-447; As m7, with the mutation; also called G4-K370E; not shown: N-terminal 6 amino acid His tag
B16: CH2-CH3 fragment of human IgG4 with K370Q (other, UniProt P01861-1 221-327, looked up, name in EU numbering)
chain: B1 chain with R15Q, D16E, L18M, K30Q, Q79E, P105L
notes: range 341-447; As m7, with the mutation; also called G4-K370Q; not shown: N-terminal 6 amino acid His tag
B17: CH2-CH3 fragment of human IgG4 with R409W (other, UniProt P01861-1 221-327, looked up, name in EU numbering)
chain: B1 chain with R15Q, D16E, L18M, R69W, Q79E, P105L
notes: range 341-447; As m7, with the mutation; also called G4-R409W; not shown: N-terminal 6 amino acid His tag
B18: CH2-CH3 fragment of human IgG4 with F405L (other, UniProt P01861-1 221-327, looked up, name in EU numbering)
chain: B1 chain with R15Q, D16E, L18M, F65L, Q79E, P105L
notes: range 341-447; As m7, with the mutation; also called G4-F405L; not shown: N-terminal 6 amino acid His tag
B19: CH2-CH3 fragment of human IgG4 with E357T (other, UniProt P01861-1 221-327, looked up, name in EU numbering)
chain: B1 chain with R15Q, D16E, E17T, L18M, Q79E, P105L
notes: range 341-447; As m7, with the mutation; also called G4-E357T; not shown: N-terminal 6 amino acid His tag

Target: the molecule itself
Experiment: native mass spectrometry; CH2-CH3 fragment homodimer
Description: (§1) The fragments were analyzed by native mass spectrometry. Samples were buffer-exchanged to 100 mM ammonium acetate pH 7, using 10 kDa MWCO spin-filter columns. Aliquots (˜1 μL) of serial diluted samples (20 μM-25 nM; monomer equivalent) were loaded into gold-plated borosilicate capillaries for analysis on a LCT mass spectrometer (Waters). The monomer signal, Mₛ, was defined as the area of the monomer peaks as a fraction of the area of all peaks in the spectrum (Mₛ/(Mₛ+Dₛ) where Dₛ=the dimer signal). The concentration of monomer at equilibrium, [M]eq, was defined as Mₛ·[M]₀ where [M]₀ is the overall protein concentration in terms of monomer. The dimer concentration at equilibrium, [D]eq, was defined as ([M]₀−[M]eq)/2. The KD, was then extracted from the gradient of a plot of [D]eq versus [M]eq².
It is described in Example 21 that there is a specific range in the strength of the interaction of the CH3-CH3 homodimers that allows efficient Fab-arm-exchange. The strength of the interactions at the CH3 interface should be such that it is possible that both heavy chains in the parental antibodies (homodimers) dissociate in the Fab-arm-exchange reaction and that they subsequently associate in the heterodimerization reaction. To generate a stable heterodimer, the strength of the heterodimer interaction should be greater than the strength of the homodimer interaction, such that it favors heterodimerization over homodimerization. To confirm this, the strength of the CH3-CH3 interaction in the heterodimers was measured and compared to the strength in the homodimers. The KD of the CH2-CH3 fragments derived from IgG1-K409R, IgG1-F405L and IgG1-ITL homodimers were measured as described in Example 21. For the determination of the KD in heterodimers, CH2-CH3 domain fragments (G1-F405L and G1-ITL) were mixed with the IgG1Δhinge fragment of IgG1-7D8-K409R, which contain all antibody domains except the hinge. […] The fragments were mixed and analyzed after 24 hours by native mass spectrometry as described in Example 21. […]

| Protein | Kd |
| --- | --- |
| B1 | 110 nM |
| B2 | 850 nM |
| B3 | 1200 nM |

Target: the molecule itself
Experiment: native mass spectrometry; KD compared to the wild type IgG1 CH2-CH3 fragment
Description: as §1, with “To measure the effect of the above mentioned CH3 mutations on the strength of the CH3-CH3 interaction, fragments composed of only the CH2-CH3 domains were made. The lack of a hinge region in these fragments prevented covalent inter-heavy chain disulfide bonds. The fragments” for “The fragments”

| Protein | fold-difference |
| --- | --- |
| B1 | 0.03 fold |
| B4 | 0.4 fold |
| B5 | 0.07 fold |
| B3 | 0.003 fold |

Target: the molecule itself
Experiment: native mass spectrometry; KD compared to the wild type IgG4 CH2-CH3 fragment
Description: as §1, with “To measure the effect of the above mentioned CH3 mutations on the strength of the CH3-CH3 interaction, fragments composed of only the CH2-CH3 domains were made. The lack of a hinge region in these fragments prevented covalent inter-heavy chain disulfide bonds. The fragments” for “The fragments”

| Protein | fold-difference |
| --- | --- |
| B6 | 6 fold |
| B7 | 1.02 fold |
| B8 | 3.2 fold |
| B9 | 0.07 fold |
| B10 | 1 fold |
| B11 | 0.0025 fold |
| B12 | 0.3 fold |
| B13 | 16 fold |
| B14 | 0.06 fold |
| B15 | 24 fold |
| B16 | 4.3 fold |
| B17 | 0.0014 fold |
| B18 | 0.0019 fold |
| B19 | 0.0012 fold |

Target: the molecule itself
Experiment: native mass spectrometry; monomer-dimer equilibrium of the hinge-less CH2-CH3 fragment (homodimer)
Description: as §1, with “To measure the effect of the above mentioned CH3 mutations on the strength of the CH3-CH3 interaction, fragments composed of only the CH2-CH3 domains were made. The lack of a hinge region in these fragments prevented covalent inter-heavy chain disulfide bonds. The fragments” for “The fragments”

| Protein | Kd |
| --- | --- |
| B1 | 110 nM |
| B6 | 8 nM |
| B4 | 7 nM |
| B7 | 47 nM |
| B8 | 15 nM |
| B9 | 720 nM |
| B10 | 48 nM |
| B11 | 19000 nM |
| B12 | 160 nM |
| B13 | 3 nM |
| B14 | 740 nM |
| B15 | 2 nM |
| B16 | 11 nM |
| B5 | 45 nM |
| B17 | 34000 nM |
| B18 | 25000 nM |
| B19 | 41000 nM |
| B3 | 1000 nM |
